According to publication PMC9388093:

Target: T1, rPfTPx-1 (thioredoxin peroxidase 1) (Plasmodium falciparum, UniProt Q8IL80 1-195)
T1 sequence: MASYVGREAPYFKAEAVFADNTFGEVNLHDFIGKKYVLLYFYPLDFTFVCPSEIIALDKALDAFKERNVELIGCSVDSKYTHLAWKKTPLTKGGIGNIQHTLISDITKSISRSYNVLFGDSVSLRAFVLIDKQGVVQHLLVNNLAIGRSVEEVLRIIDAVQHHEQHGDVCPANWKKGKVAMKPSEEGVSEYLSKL
Test: EMSA

Binder: AUCACAUACAUAUACACAAACACUUAUACAUACACAUA (ssRNA) [IntPE (PE) RNA probe, fluorescent]
- binding result: binds
